Target: T1, MBP (UniProt P0AEX9 27-392 = MBP)
T1 construct: Control without pilin
Assay: co-precipitation of CD147-Fc with MBP immobilised on staphylococci, immunoblot

B1: recombinant human CD147-Fc chimera (Fc fusion)
chain: THGASGAAGTVFTTVEDLGSKILLTCSLNDSATEVTGHRWLKGGVVLKEDALPGQKTEFKVDSDDQWGEYSCVFLPEPMGTANIQLHGPPRVKAVKSSEHINEGETAMLVCKSESVPPVTDWAWYKITDSEDKALMNGSESRFFVSSSQGRSELHIENLNMEADPGQYRCNGTSSKGSDQAIITLRVRSH
notes: Bought from R&D Systems; comprises the Ig domains of CD147 fused to the Fc domain of human IgG1, produced as a disulfide-linked homodimer; also called soluble chimeric CD147-Fc; recombinant soluble form of the extracellular domain of CD147; not shown: Fc domain of human IgG1
binding result: no binding (tested: 1 µg of recombinant human CD147-Fc)
